Results published in a protein production outcome set (Wang et al. 2014).

Experiment: label from the status in PepcDB records
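Note: failed if final PepcDB status was selected cloned or expressed and not failed if soluble or beyond.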

MNEADYLRLLTRQAEQANDFLSNARKWDRERWVCQRFLEALNVPYRQEDFAAPGEQPPDVLFKGAGFEVFFVLDEGRRLNEEWREELTRRRQAVSLRQLIRREERPQRIAAAELQARLAPTLRKKAHNYSERGIDHGELDLLAFVNLKRAVPDFNTPFPPPTEYLRQGWRSLSMVGPTFARVLFAHSGAPEFLRANLGRSILFDAGVGL
protein production: not failed

MNELDVREFYQKQFELSNYDINTERWLEQLAKEVKEQIGYPFQSMLELGAGNGGFARAMSNLNVKMTTVELVPELVMFAKEHSTNDIEVHCADFYKINFEEKFDIVTYLDGFGVGTDEEQLFLLKRIYNWLKDDGCALIDIYQPLYWEKANGQEMPIYSAMRKYEYDSENARMLDHWWEKDSSNDIVTQSLRCYTIDEISNLCAEARFSIVGIFPGGAYDFEERKYKEQASLNECLSYRIKVKKSKD
protein production: failed

MNEPQAFAQTDAEWLASINRARDWFQGPLGSLMLAEERRLLCDELTRYFGGYLVHYGPHAELPPSTGQIQRGVRLGPPLPGVDIACEEGAWPLSEHAADVVLLQHGLDFCLSPHRLLREAARTVRPGGHLLLIGINPWSLWGIRHYFAGDALRQARCIPPSRACDWLNLLGFALEKRRFGCYRPPLASAAWQSRLARLERWGDAWQSSGAGFYLLVARKLVVGLRPLRQSKREPRGQLVPMPVAKVSRRDSEI
protein production: failed

MNEREAKMYELEFPAPDVASDGVDGPTLIIAMQGYADAGLAVEASADHLLSALEHRPVAVFNNDELIDYRSRRPAVTIDHNIVVDANELKLSMDVLRDSNGTPFLLLSGPEPDLRWDAFSQAVADLVRRFGVRRTICIYAAPMTVPHTRPLIVSAHGNSLDLIKHHFSIDSKVTIPGSASLHIERLLNKNNIDVAGYTAHVPHYLSASAYPLATLKLLEAITTSTNLDFPLKTLEADAQKTALQVEEQVAGSQEIESVVKILEQQYDE
protein production: failed

MNESSTHDSVADDPTEVSTDTVLDIALSLFSELGFSDAKLEAIAKKSGMSKRMIHYHFGDKRGLYICCLEEAVRRLRPTAEEMYLASAVPVEGVRTIVEAVFHRYVQHPEAVRMLQMENLHHYGKVAEASPLSDQSAITLQLDRLLMLGQDAGAFRPGISAQDVFTLIASIAVFRINSRSTTLNLYGIDMMNGDNTDGMRRMAVDTVLAFLTSNLKSADEDSYLSRPLLSTVTEHVDEEGSYEVAADPFS
protein production: not failed

MNEVKSLTTAEGPTKLLNLQLKDLGDSLIDVALWGKLAEDVYSNIKSQPSGPVFSSWKFDEDFAISRHSSKLKIYNKSLYPFSTTRDSSVSRSFNCFGETPQELLDLGGRNYVFKIMVKHEAKHNQSSTYKMISLTDVLNVIQSFFESASTLNDIEQEIITVSGNSVGTSIGTTTQAEINFVDVDNLDNNEDNAYYISTPKPITKRFLATSKHVQQSSTKP
protein production: not failed

MNEYLQAVLMILLTIVLYYVSKKIQDKYNNPLLNPALIASIAIIIVLLVCGVSYKGYMKGGTWINHVLNATVVCLAYPLYQNKKKIKKYLTIIFTSVLTGVVLNFVLVFTTLKIFGYSKDTIVTLLPRSITAAVGIEVSQELGGTDTITVLFIITTGLIGSILGSMLLRMGGFKSSIARGLTYGNASHAFGTAKALELDIESGAFSSIGMILTAVISSVLIPVLILLFY
protein production: failed

MNFAGQPLQDGSLPRIGTGKDALSLLDLSDFVARHWRFIGLVTVFVMALALAYLAAAPSRYTAQTDMIIDTKRVTWTQSEFATENRMVEDASVESEIETTKSEKVALQVIRKLRLTEDPEFIGSGTGLRNRLYQLLDLDAPISPQLTPSELEARALSRVKDNLKVMRLGRSYIEQISFTSLVPEKAAVIANAFADAYIEDQIQAKFEATRRASEWLQQRIGELRQQASDAYRAVQDFKSSNSIIVSGDGKLASDLELDQLGISLAKARAETSQARAKLERITRVLELRQEKGSNEIPDPVVTDALSNPVITRLRQQYLDNQSKEAEWSSRYGAEHQAARNLRSEMANVRQAIWDEVSRIAESYRSEVQIAKTQEDSIDKRMIEVFQSSTGTRQAQVHLRELETAATTYRGIYETFLTRFTQSVQQQSFPSTEARVVTLASPPSVRSSPKTNLTLALAAISGLTLGILGAFARDRMSRRIHTRAQLETILGTSCLAIIPSFANPALTSQTSTSSSRLSRAVKQLLRKRDHVPGQPRERSQANSAAFEKINDVAPFSATAEALRHIKVAIDLSPGGGRVIGIVSARPGEGKTTICASFAAFLARSGARTLLIDGDLRNPSLSRTLGYKNKRGLLELVADQLQLSDLVVTDPVYKFDFLPSATEMKPINSADVLTSPSVKRMLKSAAGNYDYIIVDLPPILPVVDVKAAAHLFDAFVLVVEWGATMSDEVRSAVGVSRSLSERLLGAVLNKTDEDVMRRLEGYSYRSHHYYYYGAPKHENEQTKN
protein production: failed

MNFEYPDGATPLDSDEAEGLLLTHITSRGELDRWEQENIAEGEAWAFGRRQKNILSEAFIRRLHKRMFGHVWRWAGEFRRSDKNIGVTWWQVPIELRKLCDDVVAWIAFGTYPPDEIAVRFHHRLVAIHPFANGNGRHARTMTDLLLVQALQRPRFTWGSGNLVSVGDCRRYYIEALRAADRHDYQLLLEFVRMLEHHHHHH
protein production: failed

MNFIIEPGSLADIDELERLYDELNDHLSATINYPGWIKGIYPVRENAAAGVDDNSLFVARCDGRIAGSVILDHQPEKAYENIVWKIDADYSYIFVVRTFVVHPSFLQMGVGHALMDFSLELALKSEMKSIRLDVYEKNLPAISLYEKCGFEYIDTVDLGLGHYGLDWFKLYEKVILEHHHHHH
protein production: not failed

MNGARKWFFPDGYIPNGKRGYLVSHESLCIMNTGDETAKIRITFLFEDSKPVVHEVEISPMKSLHLRLDKLGIPKCKPYSIMAESNVPVVMQLSRLDVGKNHYTLMTTIGYWEE
protein production: not failed

MNHDLLTNNPLLIVSAIFVFFILLEIACSAFGQPRGQRRDVLIEAVGSSLLLGVTFPLVMWASGALMQLSLPEAKGALAQIPWVLGLLLFLVFDDMTQYWWHRLTHRVPALYALHRAHHSAPYMSIRIVYRNNSFYYLLMPGIWFSGVLIYLGLAPVYYGYLILKMTVIFAAHSSVAWDDKLYRIGFLRPLMWLLERVFSTPSTHSAHHGLSAEDGVTHYKGNFGNLLFLWDVLFGTAKITRRRPVAYGIEHLAPVSWTQELFWPLVRSRKARASAVARVEGALPANPASQG
protein production: failed

MNHYFRAIGSMLILVYSTFFAIFFIDKVFVNIMYFQGMFYTQIFGIPVLLFLNLMVILLCIIVGSVLAYKINQQNHWLKDQIERSIEGQTVGINDQNIELYNETIELYQTLVPLNQEVHKLRMKTQNLTNESYNINDVKVKKIIEDERQRLARELHDSVSQQLFAASMMLSAIKETELKAPLDQQIPVLEKMIQDSQLEMRALLLHLRPIGLKDKSLGEGIKDLVVDLQKKVPMKVVHDIEEFKVPKGIEDHLFRITQEAISNTLRHSKGTKVTIELFNREEYLLLRIQDNGKGFNVDDKVEQSYGLKNMRERALEIGATFHIVSLPDAGTRIEVKAPLNKEDSNAD
protein production: failed

MNIAANPHVQADQTVYLKDYQKPSFLVESINLDIQVYDDHTVVESTLVMNRQTAGDLVLLGRDLELKSIVLNGKNLEVGQYQLDHEQLVITHAPDQVILNTQVVIHPESNTQLEGLYKAGGDLFVTQNEPEGFRKITFYPDRPDVLAEFTTRVEADKKFPVLLANGNLLETGTVGENRHFAIWQDPTKKPSYLFACVIGDLAVLKDHYTTSEGREVALEIYAIEKDIPKCHIAMEALKHSMRWDEEHYGRPYDLDNYMIVAVSQFNMGAMENKGLNIFNTSCVLADEEYTTDAAIMRVQSVIAHEYFHNWTGNRITCRDWFQLCLKEGLTVFRDQSFSEDLQSAAVQRIDDVAVLKAHQFPEDAGPLSHPPRPDHFVEINNFYTATVYEKGAEINRMMSTLLGKEKFRQGTDEYFHRYDGQAVTVEDWVNALSAGSGVDLSNFLTWYNQPGTPKLEAKGEYDEQNHVYRLSFKQSLKVHPKYPNLKAVPVPVALALFNAETGEQYTLHCQDLFVNEVQDGVYLFDQDTATIEFSNVTQKPVVSLLRNFSAPVNLDFDYSDDELAFLIEYETNGFNQWQASQTLLERILLKDHAVEPYIKAIKNTLPDLVKKDPLLASRLFDVPTEGYLGSRIDHDYKPEAIQEKRNSVLETLARELGAFWKETYLSLDPSLQNDFSQAMGERALKNIMLSMMARQGDDSVFDLAYTQYSQTKNMSERLGALRVLVWNDAPQAQNALDDFYRRYKDEALSLDQWFMVQAANPNATAETIKALTEHPDYDLGTPNRVRSVSGGLSNNPVNAWSFGVEHYIGLAEYFDEKNPILGSRLLQVLSRWYTLAEPQRGNVQNALKDLQPHVKSKNVKETLNSILSV
protein production: failed

MNIDEIERKIDEAIEKEDYETLLSLLNKRKELMEGLPKDKLSEILEKDRKRLEIIEKRKTALFQEINVIREARSSLQK
protein production: not failed

MNIDLTPYYAEPGEQPFSARRMAMPWRNHVPLSPEQIPAGWQTLKQQSVPARKRLLYLHIPFCATHCTFCGFYQNKLRDDSTATYTRYLLQELAMEADSPLHQSAPIHAVYFGGGTPTALAADELSQIIRAIRTSLPLAPDCEITVEGRAMDFDDERIDACLDAGANRFSIGIQTFDTRIRQRMARTSDKQQSIRFLERLCGRDRAAVVCDLMFGLPGQTPEIWREDLAIVSDLPLDGVDLYALNLLPTTPLAKAAENQRVALPDVVARRDFYRTGAAFLADSGWHQLSNSHWARTTRERNLYNLLIKQGADCLAMGSGAGGNINGQAYMMERSLERYYQQIDQGQKPIMMMTPASSTGPWQHQLQAGIEVGRIKLPQLTQHARELQPLLSQWHQAGLTCDDSTCLRLTNDGRFWANNLMQALQQIIPQLNAEEHAHLEHHHHHH
protein production: not failed

MNIEKTRFCINRKIAPGLSIEAFFRLVKRLEFNKVELRNDMPSGSVTDDLNYNQVRNLAEKYGLEIVTINAVYPFNQLTEEVVKKTEGLLRDAQGVGARALVLCPLNDGTIVPPEVTVEAIKRLSDLFARYDIQGLVEPLGFRVSSLRSAVWAQQLIREAGSPFKVLLDTFHHHLYEEAEKEFASRIDISAIGLVHLSGVEDTRPTEALADEQRIMLSEKDVMQNYQQVQRLENMGYRGIYAFEPFSSQLASWSEAEIEEQINRSVSLLLQ
protein production: not failed

MNIIIATTKSWNIKNAQKFKKENESKYNTTIITNKDELTFEKVKLINPEYILFPHWSWIIPKEIFENFTCVVFHMTDLPFGRGGSPLQNLIERGIKKTKISAIKVDGGIDTGDIFFKRDLDLYGTAEEIFMRASKIIFNDMIPELLTKRPVPQKQEGEATVFQRRKPEQSEISPDFDLEKIYDYIRMLDGEGYPRAFIKYGKYRLEFSRASMKNGKIIADVEIIEGDENE
protein production: not failed

MNIITTDPLFGFVLTVLVFMIGVRINENFRKPWTNPLLFATVVIILILSLAHIPYKNYYIGGSIINDLIGPSTVALGIPLYKTFHLMKHHARSIVSSIAIAALVNCIFTALCAKFFSLSKLASLSIFPKSVTTAMAMGISDKMHGVEQITVVVVVATGILTSVLGGPLLKLFRITDPVAQGIALGGTGHAVGTGTAIELGKTQGAMAALSIGVTGIMYVIFAPIIAKIILGY
protein production: failed

MNIKVTVFHYILDRSYIFLLFIIFISLIFPIISAFISLIFVGLLFQGLYLRRQSSTNSPYIVLEILSMLSLIYAAQFFTHLLKATDIVFLSYLIIISLSLYRLKRIIKKKTNYLQNSKVAFTLLLLAFLLNWFISGFLDLTQGNFSVFGQFGYFSYPFLAIMNFISAFASITASPWFMIDMGIWLGVIGIFRIIEYNKLENKIRYLLMMFAYAFYSIYLPSFSPLQSEVQYIPYMWFNGLGTYGPVRSSYLLDGIIGTFTVTAILSFMFGSRQICSVTCTAPYMLQNTFLNSMKKYNRSSKVGRKTLTSRMSSWYKWVMSITWISLIILAVLSFLKFSILGNDPTMFYTSLYFNVIWYFQFMLMPFLGNYACVNSGICAWGSFNQLFGYLGFFKLKVRDLKQCLNCKTVDCANACPVGLTDMRAWFIKKGEFKSFKCVGVGDCVEVCPYNNITFYDVRSWIKEKLYPIQFKHRGTT
protein production: failed
